{"source": "patent US20260234188A1", "about": "“CHEMOKINE-BINDING PEPTIDES” (Oxford University Innovation Limited, priority 2022, published 2026)", "molecular_target": "CXL10_HUMAN (human) (UniProt P02778)", "sequence (P02778 22-98 limits assumed)": "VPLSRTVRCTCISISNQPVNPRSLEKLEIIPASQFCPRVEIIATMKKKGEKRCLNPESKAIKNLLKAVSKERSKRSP", "experiment": "cell-based or functional assay", "data": [{"substance": "EVA4_RHISA protein (from UniProt P0C8E9 24-127)", "values": [{"measurement": "cell migration", "value": 20, "unit": "µM"}]}]}
